Key:
[1] = target: ΔRACK1 40S ribosomal subunit (human 40S subunit without RACK1) (human (endogenous in HAP1)) (UniProt P23396); assay: native gel or EMSA
[2] = target: ΔRACK1 40S ribosomal subunit (human 40S subunit without RACK1) (human (endogenous in HAP1)) (UniProt P23396); assay: FRET or BRET

“native RACK1-ybbR expressed in ΔRACK1 HAP1 cells (from UniProt P63244 1-317) (natural protein)” gave a t1/2 of RACK1 on the ribosome [1] of 15 h.

B1: recombinant Asc1p-ybbR (S. cerevisiae RACK1 ortholog) (natural protein)
chain: MASNEVLVLRGTLEGHNGWVTSLATSAGQPNLLLSASRDKTLISWKLTGDDQKFGVPVRSFKGHSHIVQDCTLTADGAYALSASWDKTLRLWDVATGETYQRFVGHKSDVMSVDIDKKASMIISGSRDKTIKVWTIKGQCLATLLGHNDWVSQVRVVPNEKADDDSVTIISAGNDKMVKAWNLNQFQIEADFIGHNSNINTLTASPDGTLIASAGKDGEIMLWNLAAKKAMYTLSAQDEVFSLAFSPNRYWLAAATATGIKVFSLDPQYLVDDLRPEFAGYSKAAEPHAVSLAWSADGQTLFAGYTDNVIRVWQVMTAN
B1 gave a kobs of the fast phase at 75 nM [2] of 0.2 s⁻¹ and a kon of the fast phase [2] of 2e+06 M⁻¹ s⁻¹.

— publication PMC6573788
